Paper PMC10776994, “The SDS22:PP1:I3 complex: SDS22 binding to PP1 loosens the active site metal to prime metal exchange” (The Journal of Biological Chemistry, 2023)

B1: I3_(27-68) (domain or fragment, human, UniProt O60927 27-68, looked up)
chain: SLTIKLRKRKPEKKVEWTSDTVDNEHMGRRSSKCCCIYEKPR
notes: source: E. coli BL21 (DE3), purified (Ni-NTA, TEV, heat 95 °C, SEC); not shown: His6, N-terminal, cleaved; MBP, N-terminal, cleaved
B2: I3_(27-68) C60S/C61S/C62S (domain or fragment, human, UniProt O60927 27-68, looked up)
chain: SLTIKLRKRKPEKKVEWTSDTVDNEHMGRRSSKSSSIYEKPR
notes: also called I3_(27-68) SSS; SSS: I3_(27-68) CCC→SSS; source: E. coli BL21 (DE3), purified (Ni-NTA, TEV, heat 95 °C, SEC); not shown: His6, N-terminal, cleaved; MBP, N-terminal, cleaved
B3: I3_(27-59) (Δ60–68) (domain or fragment, human, UniProt O60927 27-59, looked up)
chain: SLTIKLRKRKPEKKVEWTSDTVDNEHMGRRSSK
notes: made by a stop codon in the I3 27-68 construct; lacks the CCC motif; also called I3_(ΔCCC); CCC_(deletion); source: E. coli BL21 (DE3), purified (Ni-NTA, TEV, heat 95 °C, SEC); not shown: His6, N-terminal, cleaved; MBP, N-terminal, cleaved

Assays:
Settings in all cases: both partners purified
[1] = target: T1, SDS22_(56-360):PP1α_(7-330) complex (UniProt Q15435 56-360; P62136 7-330); experiment: SPR; as a3, but SDS22_(56-360):PP1α_(7-330) treated with 3 mM EDTA beforehand and dialysed to extract the M2 metal (metal-free PP1); one-state fit
T1 construct: SDS22 (PPP1R7), residues 56-360; Protein phosphatase 1 alpha catalytic subunit (PP1α), residues 7-330; PP1 in this complex lacks the M1 metal; The same complex treated with EDTA (M2 metal extracted) is kept as this molecule and told apart by assay a4; the His6 tag of SDS22 was cleaved, so it is probably His6-PP1; also called SDS22:PP1; SDS22:PP1_(M2-metal-free) / metal-free …
T1 sequence (Q15435 56-360, chain 1 of 2): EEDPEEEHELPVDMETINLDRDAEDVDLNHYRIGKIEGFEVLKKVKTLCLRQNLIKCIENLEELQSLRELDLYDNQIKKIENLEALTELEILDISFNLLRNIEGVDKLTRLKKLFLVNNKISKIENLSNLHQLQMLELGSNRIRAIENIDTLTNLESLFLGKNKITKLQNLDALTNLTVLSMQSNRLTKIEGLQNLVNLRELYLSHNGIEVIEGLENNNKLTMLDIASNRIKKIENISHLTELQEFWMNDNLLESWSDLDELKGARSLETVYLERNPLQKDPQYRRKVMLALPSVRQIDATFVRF
T1 sequence (P62136 7-330, chain 2 of 2): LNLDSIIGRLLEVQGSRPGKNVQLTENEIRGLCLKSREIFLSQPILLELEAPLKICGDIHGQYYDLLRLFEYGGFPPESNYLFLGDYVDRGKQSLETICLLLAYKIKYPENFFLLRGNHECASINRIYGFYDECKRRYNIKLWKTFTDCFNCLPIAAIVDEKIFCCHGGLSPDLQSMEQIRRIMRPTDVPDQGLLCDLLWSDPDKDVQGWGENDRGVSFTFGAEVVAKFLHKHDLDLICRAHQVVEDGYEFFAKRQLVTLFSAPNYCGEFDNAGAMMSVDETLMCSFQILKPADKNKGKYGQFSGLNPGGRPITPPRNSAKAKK

[2] = target: T2, PP1α_(7-330) Y134A (UniProt P62136 7-330, Y134A); experiment: SPR; His6-PP1 constructs or SDS22_(56-360):PP1α_(7-330) captured on a Ni-NTA chip (NiHC200M), I3 and variants injected; 25 °C; 20 mM Tris pH 8.0, 500 mM NaCl, 0.5 mM TCEP, 0.05% Tween-20; one-to-one one-state or two-state fit
T2 construct: Protein phosphatase 1 alpha catalytic subunit (PP1α), residues 7-330; also called PP1_(Y134A); PP1_(7-330) Y134A
T2 sequence (P62136 7-330 Y134A): as the sequence (P62136 7-330, chain 2 of 2) above, with Y128A counted along it

[3] = target: T3, PP1α_(7-330) R96A/H66K (UniProt P62136 7-330, R96A | H66K); experiment: as above
T3 construct: Protein phosphatase 1 alpha catalytic subunit (PP1α), residues 7-330; also called PP1_(7-330) R96A/H66K
T3 sequence (P62136 7-330 H66K/R96A): as the sequence (P62136 7-330, chain 2 of 2) above, with H60K, R90A counted along it

[4] = target: T1, SDS22_(56-360):PP1α_(7-330) complex; experiment: as above
[5] = target: T4, PP1α_(7-330) R96A (UniProt P62136 7-330, R96A); experiment: as above
T4 construct: Protein phosphatase 1 alpha catalytic subunit (PP1α), residues 7-330; also called PP1_(R96A); PP1_(7-330) R96A
T4 sequence (P62136 7-330 R96A): as the sequence (P62136 7-330, chain 2 of 2) above, with R90A counted along it

[6] = target: T5, PP1α_(7-330) Y134A/H66K (UniProt P62136 7-330, Y134A | H66K); experiment: as above
T5 construct: Protein phosphatase 1 alpha catalytic subunit (PP1α), residues 7-330; also called PP1_(7-330) Y134A/H66K
T5 sequence (P62136 7-330 H66K/Y134A): as the sequence (P62136 7-330, chain 2 of 2) above, with H60K, Y128A counted along it

| Binder | Kd [1] [µM] | Kd [2] [µM] | Kd [3] [µM] | Kd [4] [µM] | Kd [5] [µM] | Kd [6] [µM] |
| --- | --- | --- | --- | --- | --- | --- |
| B1 | 0.605 ± 0.032 | 0.009 ± 0.002 | 0.007 ± 0.001 | 0.116 ± 0.012 | 0.012 ± 0.001 | 0.012 ± 0.003 |
| B2 |  |  |  | 0.429 ± 0.03 |  |  |
| B3 |  |  |  | 0.396 ± 0.011 |  |  |
